Measured values reported in US20250295803A1, “5T4 ANTIBODY-DRUG CONJUGATES AND USES THEREOF” (EXELIXIS, INC., priority 2022, published 2025).
Positions count from the first letter of the chain named.

T1: unconjugated human TPBG/5T4 protein with a c-terminal polyhistidine and Avi tag (AcroBiosystems Cat. No. … (human, UniProt Q13641 32-355))
T1 construct: Bought protein; also called Acro TPGH52E5; Acro Catalog No. TPGH52E; not shown: C-terminal polyhistidine and Avi tag
T1 sequence: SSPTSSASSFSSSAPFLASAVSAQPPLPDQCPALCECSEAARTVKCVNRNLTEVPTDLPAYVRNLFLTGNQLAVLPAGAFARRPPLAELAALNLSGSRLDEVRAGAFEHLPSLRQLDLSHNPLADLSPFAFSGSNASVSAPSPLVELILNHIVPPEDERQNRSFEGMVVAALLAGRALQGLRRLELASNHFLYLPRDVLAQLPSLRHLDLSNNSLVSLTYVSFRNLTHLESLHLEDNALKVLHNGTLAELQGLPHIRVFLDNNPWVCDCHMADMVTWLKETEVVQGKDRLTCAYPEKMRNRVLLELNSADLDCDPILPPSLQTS

T2: human 5T4 (Homo sapiens, UniProt Q13641)
T2 sequence (Q13641 32-355 limits assumed): T1 sequence

B1: mAbA17 (antibody, V domains shown)
VH: EVQLVESGGGLVQPGGSLRLSCAASGFTFSRYWIHWVRQAPGKGLEWVAAIFPYSGSTLYADSVKGRFTISADTSKNTAYLQMNSLRAEDTAVYYCARSPSRSILPSGLDYWGQGTLVTVSS
VL: DIQMTQSPSSLSASVGDRVTITCRASQSVSSAVAWYQQKPGKAPKLLIYSASSLYSGVPSRFSGSRSGTDFTLTISSLQPEDFATYYCQQGDGSPYTFGQGTKVEIKR
notes: also called Antibody mAbA17
B2: mAbA15 (antibody, V domains shown)
VH: EVQLVESGGGLVQPGGSLRLSCAASGFTFSSYYIHWVRQAPGKGLEWVAYITSTGSYTEYADSVKGRFTISADTSKNTAYLQMNSLRAEDTAVYYCARYDRSTRYSGLDYWGQGTLVTVSS
VL: B1 VL with G91A, D92Y, G93A, S94T, Y96V
notes: also called Antibody mAbA15
B3: mAbA4 (antibody, V domains shown)
VH: EVQLVESGGGLVQPGGSLRLSCAASGFTFSRYYIHWVRQAPGKGLEWVAFISPGGSYTYYADSVKGRFTISADTSKNTAYLQMNSLRAEDTAVYYCAREYYSMGVLDYWGQGTLVTVSS
VL: B1 VL with G91A, D92Y, G93E
notes: also called Antibody mAbA4
B4: mAbA17: 5T4 antibody comprising VH of SEQ ID NO:62 and VL of SEQ ID NO:63 (antibody, V domains shown)
VH: B1 VH
VL: DIQMTQSPSSLSASVGDRVTITCRASQSVSSAVAWYQQKPGKAPKLLIYSASSLYSGVPSRFSGSRSGTDFTLTISSLQPEDFATYYCQQGDGSPYTFGQGTKVEIK
modifications: Antibody mAbA17 VH Sequence; Antibody mAbA17 VL Sequence
B5: mAbA4: 5T4 antibody comprising VH of SEQ ID NO:25 and VL of SEQ ID NO:26 (antibody, V domains shown)
VH: B3 VH
VL: B4 VL with G91A, D92Y, G93E
modifications: Antibody mAbA4 VH Sequence; Antibody mAbA4 VL Sequence
B6: mAbA15: 5T4 antibody comprising VH of SEQ ID NO:44 and VL of SEQ ID NO:45 (antibody, V domains shown)
VH: B2 VH
VL: B4 VL with G91A, D92Y, G93A, S94T, Y96V
modifications: Antibody mAbA15 VH Sequence; Antibody mAbA15 VL Sequence

Target: T1, unconjugated human TPBG/5T4 protein …
Assay: ELISA on coated human 5T4 His-Avi (Acro TPG-H52E5); antibody condition: pH 8.5 Day 1
Conditions: not given
Experimental: (§1) A. Normal Binding Unconjugated antibodies were tested for their ability to bind to human 5T4 (hu5T4) using ELISA. On Day 1, unconjugated human TPBG/5T4 protein with a c-terminal polyhistidine and Avi (AVITAG™) tag (AcroBiosystems (Newark, DE, USA), Cat. No. TPG-H52E5) was diluted 2 μg/mL in PBS, mixed thoroughly, plated 100 μL per well in a 96-well plate (Nunc MAXISORP®) and incubated overnight at 4° C.

Row | EC50 [nM] | Molecule
1 | 0.174 | B1
2 | 0.128 | B2
3 | 0.127 | B3

Target: T2, human 5T4
Assay: Octet monovalent binding affinity assay
Set-up: polyhistidine (C); Avi tag (C); purchased Acro Biosystems TPGH52E
Conditions: in all three lots of human 5T4
Experimental: Monovalent binding assays were employed to determine the relative affinity of each 5T4 binder obtained by the phage display in Example 1 to human 5T4. Human 5T4 was purchased from Acro Biosystems (Acro Catalog No. TPGH52E) and also produced separately. The monovalent interaction of binders to human 5T4 was monitored using an Octet (Pall ForteBio) instrument. For these assays, 36 nM antibody was immobilized on anti-human Fc (AHC) sensors in 1× kinetic buffer (ForteBio). The sensors were then dipped in wells containing a 3× serial dilution of human 5T4 ranging from 1 μM to 1.37 nM. The association was allowed to reach equilibrium. Sensors were then moved to wells containing only 1× kinetic buffer and allowed to dissociate to equilibrium. Association and dissociation rates were measured and from these, monovalent KDS were calculated using the onboard analysis software (ForteBio).

Row | Molecule | monovalent binding strength
4 | B4 | strong or moderate binding
5 | B5 | strong or moderate binding
6 | B6 | strong or moderate binding

Target: T1, unconjugated human TPBG/5T4 protein …
Assay: ELISA on coated human 5T4 His-Avi (Acro TPG-H52E5); antibody condition: pH 5.5 Day 14
Conditions: not given
Experimental: as §1
2. Low pH Stress Test. Several unconjugated antibodies were tested for their ability to bind to 5T4 using ELISA under acidic (low pH) conditions. […]

Row | EC50 [nM] | Molecule
7 | 0.153 | B1
8 | 0.138 | B2
9 | 0.122 | B3

Tested on: not listed separately
Assay: Hydrophobic interaction chromatography (HIC) developability
Type: physicochemical
Conditions: 1 mg/mL in Dulbecco's PBS pH 7.4
Experimental: Antibodies that were selected for binding to 5T4, such as those described in Examples 2 and 3, were tested by various methods to assess developability. For example, various chromatographic methods, including size exclusion chromatography (SEC), hydrophobic interaction chromatography (HIC), and standup monolayer adsorption chromatography (SMAC) were employed to assess factors, such as monomer percentage, solubility, and antibody aggregation or precipitation.
Hydrophobic interaction chromatography (HIC) analysis was performed using a 4.6 mm ID×3.5 cm TSKgel Butyl-NPR column (Tosoh Bioscience LLC, PN 14947) on an Agilent 1100 HPLC. Antibodies were normalized to 1 mg/mL concentration in Dulbecco's PBS (pH 7.4, without Ca^2+/Mg^2+). The column was equilibrated with 100% mobile phase Buffer A (2 M ammonium sulfate/20 mM sodium phosphate, pH 7.0) at a flow rate of 1 mL/minute at ambient temperature. For each sample, 10 μL was loaded and eluted using a gradient from 100% mobile phase buffer A to 100% mobile phase buffer B (20 mM sodium phosphate, pH 7.0) at 1.0 mL/minute over 15 minutes, held at 100% B for 3 minutes to wash the column, and returned 100% A for 2 minutes for equilibration. Absorbance was monitored at 280 nm. Sample retention time was calculated and compared to a set of standard controls to identify antibodies with increased retention time (increased hydrophobicity) and the presence of multiple species. Data analysis was performed using Agilent ChemStation B.04.03 SP1

Row | Molecule | developability based on HIC analysis
10 | B4 | strong developability
11 | B5 | strong developability
12 | B6 | strong developability

Target: T1, unconjugated human TPBG/5T4 protein …
Assay: ELISA on coated human 5T4 His-Avi (Acro TPG-H52E5); antibody condition: PBS time 48 hr.
Conditions: not given
Experimental: as §1
3. Oxidative Stress. Several unconjugated antibodies were tested for their ability to bind to 5T4 using ELISA in an oxidative environment. Solutions of 1 mg/mL to 10 mg/mL of antibody in 20 mM citrate/50 mM NaCl at a pH of 5.5 were prepared and stored at 37° C. for 1 to 2 weeks.

Row | EC50 [nM] | Molecule
13 | 0.185 | B1
14 | 0.203 | B2
15 | 0.189 | B3

Target: T1, unconjugated human TPBG/5T4 protein …
Assay: ELISA on coated human 5T4 His-Avi (Acro TPG-H52E5); antibody condition: PBS + H2O2 time 48 hr.
Conditions: not given
Experimental: as §1
3. Oxidative Stress. Several unconjugated antibodies were tested for their ability to bind to 5T4 using ELISA in an oxidative environment. […]

Row | EC50 [nM] | Molecule
16 | 0.207 | B1
17 | 0.189 | B2
18 | 0.386 | B3
